The values below come from article PMC2119167 (The Journal of Experimental Medicine, 1992).

By stoichiometry N is commonly meant the number of molecules, sites or subunits per partner or assembly.

This data set deals with the molecule itself. Briefly: SEC. A general note: Size exclusion chromatography separates by hydrodynamic size, large species first.

B1: platelet membrane GMP-140 (P-selectin) (natural protein)
chain: WTYHYSTKAYSWNISRKYCQNRYTDLVAIQNKNEIDYLNKVLPYYSSYYWIGIRKNNKTWTWVGTKKALTNEAENWADNEPNNKRNNEDCVEIYIKSPSAPGKWNDEHCLKKKHALCYTASCQDMSCSKQGECLETIGNYTCSCYPGFYGPECEYVRECGELELPQHVLMNCSHPLGNFSFNSQCSFHCTDGYQVNGPSKLECLASGIWTNKPPQCLAAQCPPLKIPERGNMTCLHSAKAFQHQSSCSFSCEEGFALVGPEVVQCTASGVWTAPAPVCKAVQCQHLEAPSEGTMDCVHPLTAFAYGSSCKFECQPGYRVRGLDMLRCIDSGHWSAPLPTCEAISCEPLESPVHGSMDCSPSLRAFQYDTNCSFRCAEGFMLRGADIVRCDNLGQWTAPAPVCQALQCQDLPVPNEARVNCSHPFGAFRYQSVCSFTCNEGLLLVGASVLQCLATGNWNSVPPECQAIPCTPLLSPQNGTMTCVQPLGSSSYKSTCQFICDEGYSLSGPERLDCTRSGRWTDSPPMCEAIKCPELFAPEQGSLDCSDTRGEFNVGSTCHFSCDNGFKLEGPNNVECTTSGRWSATPPTCKGIASLPTPGVQCPALTTPGQGTMYCRHHPGTFGFNTTCYFGCNAGFTLIGDSTLSCRPSGQWTAVTPACRAVKCSELHVNKPIAMNCSNLWGNFSYGSICSFHCLEGQLLNGSAQTACQENGHWSTTVPTCQAGPLTIQEALTYFGGAVASTIGLIMGGTLLALLRKRFRQKDDGKCPLNPHSHLGTYGVFTNAAFDPSP
With B1, the “stoichiometry N” value stood at 4.
